Measurements reported in the RNAGym collection of RNA variant scans (doi:10.7554/elife.80360).

B1: HDV Ribozyme (parent)
chain: GGCCGGCAUGGUCCCAGCCUCCUCGCUGGCGCCGGCUGGGCAACAUUCCGAGGGGACCGUCCCCUCGGUAAUGGCGAAUGGGACCCA

Variants of: B1
Experiment: self-cleavage, relative activity (ratio to wild type); higher = more cleavage; co-transcriptional

Variant | self-cleavage
G29U A83G | 0.0329
G29U G67A | 0.12
G29U G67U | 0.0817
G29U G67C | 0.136
C30U C61U | 0.719
G29U C66A | 0.201
G29U C66G | 0.0652
C30U U60A | 0.69
C30U U60C | 0.831
C30G G35C | 0.198
C30G G35U | 0.138
C30G G35A | 0.191
G29U C63G | 0.0386
G29U C63A | 0.106
G29U C41A | 0.0755
C30G G68A | 0.126
C30G G68U | 0.0228
C30U A70C | 0.525
C30G G80A | 0.141
C30G C84A | 0
G29U G53C | 0.125
C30G C58G | 0.0804
C30G C58A | 0.0386
C30G C58U | 0.0906

Variant | self-cleavage
C30U U72A | 0.277
C30U U72C | 0.0959
C30A C49G | 0.232
C30A C49U | 0.615
C30G C49A | 0.116
C30G C49G | 0.203
C30G C49U | 0.0511
C30U G82C | 0.102
C30U G82U | 0.252
C30U U69A | 0.594
C30U U69C | 0.796
C30U | 0.746
C30A | 0.547
C30G | 0.0914
G29U C75A | 0.0639
G29U C75U | 0.0767
G29U C75G | 0.116
C30A A71C | 0.345
C30A A71G | 0.517
C30G G67C | 0.0528
C30U C64G | 0.653
C30U C64A | 0.422
C30A C57G | 0.284
C30A C57U | 0.587

Variant | self-cleavage
C30A C57A | 0.688
C30U G55U | 0.789
C30A G76A | 0.585
C30A G76U | 0.554
C30A G76C | 0.464
C30G C48U | 0.241
C30A A42U | 0.241
C30A A42C | 0.14
C30A A45G | 0.391
C30A A45U | 0.375
C30A C41A | 0.429
C30U C85A | 0.441
C30U C84U | 0.319
C30U C84G | 0.306
C30U C84A | 0.252
C30U G67C | 0.649
C30U A43C | 0.158
C30U A43G | 0.0755
C30G A51U | 0.0297
C30G A51G | 0
G29U G40A | 0.0955
G29U G40C | 0.0583
C30U U37G | 0
C30U U37C | 0.906

Variant | self-cleavage
C30U U37A | 0.256
C30U G40A | 0.645
G29U U47A | 0
C30U G81C | 0.148
C30U G81U | 0.149
G29U U65C | 0.173
G29U U65G | 0.0755
C30A A87C | 0.596
C30A C62U | 0.423
C30A U46G | 0.256
C30A U46A | 0.147
G29U C49G | 0.133
C30U A77C | 0.181
C30G G34A | 0
C30G G34U | 0.0449
C30G G34C | 0.107
C30U A78G | 0.208
C30U A78U | 0.101
C30U A78C | 0.0978
C30G C57G | 0.208
C30G C57A | 0.138
G29U U46C | 0
C30A G54U | 0.5
C30A G54A | 0.535

Variant | self-cleavage
C30A G54C | 0.519
C30G C64G | 0.0396
C30G C64A | 0.0361
C30G C64U | 0.126
C30A G50U | 0.729
G29U C64G | 0.0739
G29U C64U | 0.211
G29U C64A | 0.0665
G29U C44G | 0.0326
G29U C44A | 0.0297
C30G A42U | 0
C30A G34C | 0.119
C30A G34A | 0.0801
C30G A43U | 0.194
C30U A71U | 0.372
G29U U69G | 0.0615
G29U U69C | 0.128
G29U G59U | 0.147
G29U G59C | 0.104
G29U C33A | 0.0519
G29U C33G | 0.0369
C30G U47G | 0.0678
G29U G68C | 0.106
G29U U72C | 0.0811

Variant | self-cleavage
G29U U72A | 0.218
C30A A83G | 0.127
C30A A83C | 0.0811
C30A G73A | 0.237
C30A G73C | 0.119
C30U G35U | 0.0219
C30A C64G | 0.485
C30U G38U | 0.262
C30U G38C | 0
C30A U37A | 0
G29U U37A | 0.0898
G29U U37C | 0.208
G29U G73A | 0.0898
C30G A71U | 0.0875
C30G A71C | 0.0554
C30G G40C | 0.106
C30G G40U | 0.0514
C30U C48A | 0.739
C30U C48G | 0.597
C30U C48U | 0.506
C30G G55C | 0.111
C30U A56G | 0.665
G29U G74C | 0.137
G29U G55C | 0.0692

Variant | self-cleavage
G29U G55U | 0.0944
G29U G55A | 0.122
C30A G74A | 0.123
C30A G74U | 0.223
C30A C66U | 0.421
G29U C84U | 0.0594
G29U C84G | 0.0277
C30A A51U | 0.735
C30A A51C | 0.612
C30U G59C | 0.67
C30U G59U | 0.831
C30G C41G | 0.0707
C30G G76U | 0.109
C30G G59A | 0.0692
C30A G31C | 0.115
C30A G31U | 0.0733
G29U C57G | 0.198
G29U C57A | 0.151
C30G G82U | 0.0627
C30G G31U | 0.126
C30G G31C | 0.104
C30G G38C | 0.0594
C30U G68A | 0.546
C30A A56G | 0.529

Variant | self-cleavage
C30U G39C | 0.0314
C30U G39U | 0.0936
G29U U60C | 0
C30U G52A | 0.621
C30A G53C | 0.47
C30G A56U | 0.116
C30G A56G | 0.0941
C30U C63G | 0.47
C30A C86G | 0.475
G29U C32A | 0.135
G29U C32U | 0.0665
C30A C36G | 0.148
G29U G52C | 0.0268
C30A G40U | 0.183
C30A G40C | 0.0277
C30U C62G | 0.475
C30U G34U | 0.135
C30U G34C | 0.0923
C30A U79C | 0.216
C30U U47G | 0.571
C30U U47A | 0.532
C30U G73A | 0.277
C30U G73C | 0.136
G29U G82U | 0.095

Variant | self-cleavage
G29U G82C | 0.0545
C30A C33A | 0.0615
C30A C33G | 0.128
C30A C33U | 0.15
G29U C48G | 0.106
G29U C48A | 0.117
C30A C44A | 0.208
C30A C44G | 0.0831
C30A U69A | 0.353
C30A U69G | 0.469
C30U G76C | 0.683
C30U G76U | 0.805
C30U C33U | 0.369
G29U G34U | 0.0519
G29U G34A | 0.111
C30G C33A | 0.0519
C30G C33G | 0.115
C30G A87G | 0.0702
C30G A87U | 0.14
G29U C86A | 0.169
G29U C86G | 0.0346
C30A C75U | 0.101
G29U G39U | 0.111
G29U G39A | 0

Variant | self-cleavage
C30A C58G | 0.596
C30U A42U | 0.0615
C30U U65C | 0.78
C30U U65G | 0.506
C30U U65A | 0.689
C30A A77U | 0.0354
C30U C49G | 0.31
C30U C49A | 0.698
C30U G54A | 0.571
C30U G54C | 0.533
C30G G81A | 0.0978
C30G G81U | 0.158
C30U G50A | 0.728
C30U C57G | 0.683
C30G U69C | 0.18
C30G U69A | 0.148
C30U A45U | 0.32
C30U A45C | 0.138
C30G A83C | 0.0489
C30A C32A | 0.0627
C30U C66G | 0.607
C30U C32A | 0.155
C30U C32G | 0.0652
C30G G74A | 0.0733

Variant | self-cleavage
G29U G50A | 0.104
G29U G50C | 0.153
G29U G35C | 0
C30G G50U | 0.0978
C30G G50A | 0.0733
C30U G31C | 0.13
C30U G31U | 0.0268
C30A G59A | 0.561
C30A U60C | 0.582
C30A G52C | 0.58
C30A G52A | 0.522
C30A G55C | 0.653
C30U U46G | 0.231
C30G G73U | 0.0845
C30A C48U | 0.533
C30G C62A | 0.122
C30G C62U | 0.185
C30G G52C | 0.133
C30G G52U | 0.02
C30G G52A | 0.0287
C30A G39C | 0.157
C30A G39A | 0.0489
C30A G38C | 0.203
C30G C44U | 0.0213

Variant | self-cleavage
C30G C44G | 0
G29U U79G | 0.0386
G29U U79C | 0.122
C30A C85U | 0.554
C30A C85A | 0.295
C30A C85G | 0.509
C30G C66A | 0.0282
C30G G39U | 0.0692
C30G G39A | 0.0608
C30U A51C | 0.594
C30U A51G | 0.784
G29U C62G | 0
G29U C62U | 0.0804
G29U C62A | 0.0773
C30U C41U | 0.447
C30U C41G | 0.212
G29U A87U | 0.111
C30G U37A | 0.0462
C30G U46C | 0.0831
C30G C86U | 0.0332
G29U C36U | 0.187
G29U C36G | 0.201
G29U C36A | 0.187
G29U C61U | 0.122

Variant | self-cleavage
C30U G74C | 0.113
C30U G74A | 0.0329
C30U A83G | 0.302
C30U A83U | 0.151
C30U A83C | 0.332
C30A G67U | 0.339
C30A G67A | 0.623
C30A A43C | 0.0326
C30A A43G | 0.0739
C30A A70G | 0.332
C30A A70C | 0.491
C30A G81U | 0.134
C30A G81A | 0.111
C30U C36G | 0.0941
C30U C36A | 0.193
G29U G81A | 0.12
G29U G76C | 0.12
G29U G76U | 0.137
C30U C75A | 0.0959
C30G A78G | 0.0923
C30G A78C | 0.0744
C30G A78U | 0.0678
C30G A77G | 0.189
C30G A77C | 0.095

Variant | self-cleavage
C30G A70C | 0.106
G29U G31C | 0.141
G29U G38U | 0.141
G29U G80A | 0.0934
C30A G82A | 0.0898
C30A G82U | 0.166
C30G U60C | 0.147
C30A C61A | 0.428
G29U C58G | 0.0755
G29U C58U | 0.0292
C30G U65A | 0.032
C30A C63G | 0.251
C30A C63U | 0.415
C30A C84U | 0.13
C30A C84A | 0.295
C30G C85A | 0.0308
C30A G80C | 0.272
C30U G53U | 0.697
C30U G53C | 0.554
C30U G53A | 0.547
C30A G68A | 0.411
C30A G68U | 0.569
